Assay results as given in article PMC2975869.

Columns and labels:
[1] = molecular target: endogenous PTH1R of A10 cells (rat (endogenous in A10)) (UniProt P25961)
[2] = molecular target: endogenous PTH1R of A10 cells (rat (endogenous in A10)) (UniProt P25961); test: radioligand binding
[3] = molecular target: HA-tagged PTH1R (parathyroid hormone type 1 receptor), wild type (UniProt Q03431); test: radioligand binding

UniProt P25961, sequence (P25961 27-591): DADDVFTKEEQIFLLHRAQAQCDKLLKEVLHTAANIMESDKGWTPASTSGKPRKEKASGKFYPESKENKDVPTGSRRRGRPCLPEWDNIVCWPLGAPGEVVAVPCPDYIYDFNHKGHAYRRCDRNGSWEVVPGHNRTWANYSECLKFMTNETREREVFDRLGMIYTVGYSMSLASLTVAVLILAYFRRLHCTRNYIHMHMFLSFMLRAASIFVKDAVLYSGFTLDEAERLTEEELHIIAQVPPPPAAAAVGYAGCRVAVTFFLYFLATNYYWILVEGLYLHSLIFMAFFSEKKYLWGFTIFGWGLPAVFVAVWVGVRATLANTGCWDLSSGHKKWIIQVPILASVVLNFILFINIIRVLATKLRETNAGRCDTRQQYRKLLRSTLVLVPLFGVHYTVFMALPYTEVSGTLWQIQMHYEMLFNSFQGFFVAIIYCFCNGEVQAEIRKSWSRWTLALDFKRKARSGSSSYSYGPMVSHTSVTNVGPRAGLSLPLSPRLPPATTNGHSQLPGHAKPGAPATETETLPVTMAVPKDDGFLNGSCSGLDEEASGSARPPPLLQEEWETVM

cAMP production in A10 cells in response to PTHrP(1-36), 30 min at 37 °C [1] [fold] | Substance | Total Binding (TB), cells transfected with EBP50 [2] | Total Binding (TB), cells transfected with pcDNA3 [2] | Total Binding (TB), cells co-transfected with EBP50 [3] | Total Binding (TB), cells co-transfected with pcDNA3 [3]
3 | PTHrP (1-36)-NH2 (peptide) | – | – | – | –
– | [125I]-PTH(1-34)NH2 (peptide) | 2470 | 1550 | 1980 | 1290
